Assay results: the DeepSol protein solubility set

Test: soluble on expression in E. coli; label from the status in PepcDB or PDB records

| Sequence | soluble on expression in E. coli |
| --- | --- |
| MAALMTPGTGAPPAPGDFSGEGSQGLPDPSPEPKQLPELIRMKRDGGRLSEADIRGFVAAVVNGSAQGAQIGAMLMAIRLRGMDLEETSVLTQALAQSGQQLEWPEAWRQQLVDKHSTGGVGDKVSLVLAPALAACGCKVPMISGRGLGHTGGTLDKLESIPGFNVIQSPEQMQVLLDQAGCCIVGQSEQLVPADGILYAARDVTATVDSLPLITASILSKKLVEGLSALVVDVKFGAGAVFPNQEQARELAKTLVGVGASLGLRVAAALTAMDKPLGRCVGHALEVEEALLCMDGAGPPDLRDLVTTLGGALLWLSGHAGTQAQGAARVAAALDDGSALGRFERMLAAQGVDPGLARALCSGSPAERRQLLPRAREQEELLAPADGTVELVRALPLALVLHELGAGRSRAGEPLRLGVGAELLVDVGQRLRRGTPWLRVHRDGPALSGPQSRALQEALVLSDRAPFAAPLPFAELVLPPQQ | soluble |
| MGSDKIHHHHHHAIRANVMASNVDSLYSKVDTLSEQSKKNNVVREEFDYSALSFYVENFAKEYLNYNSKASDEAKKARIDRLSKYLSLDVKDVDETENLQGNVLRTFKNTSLSRIEKMEDCYLVYLNVNYELEKDKKTENVTQNMVLPIQVKDNLFSIVGRPYFVASSLPQGKTVSLKQTENSIDVDGKEKQSIEKFLKMFFTKYSVGNKQELMLLMKNPTTTAGQDSFVSIDSGDMKFFDTKQKGVTGVQVSVTFSDKTTKLTHTEDFSLWLSKTENSYFINTMKHYFTEKEGND | not soluble |
| MVQSSSVLREPSMDEILTSIREIIEENAVHPDYFSNEGAAGNSSRENLEIPSEGVYDTSLSVDDAMKALADRIGLSSENHDFSLTKDKESIEAENNTVGVDMQKMKRSSEEQSSVHRTQEHNKPFSQSENVIAGHVELSAYCISSAEKIAKDVLRPAIAEWLQHKLPVLLEDILREEIVRAIKKSS | not soluble |
| MKLVLVSTRGVRSLNSTNFPAPWPFVKKGAFGQRKIGPMNYEKFKWPGQNREFPELSPKFQKLNPKELHRYTGVQADGFHDEKTGEFVPVKEMRSELVVPNLDGFKLRPYVSYRTDVQIEKRRVAYEKKVLEKGSERLADLHTVEDERWPPPKMSAETLFELAYGDTVRSAYKEGKYGNK | not soluble |
| MSNEDSLPPFTLFGLDDVENYGLVTEADNSLPLDIHNQVFQLVEKGNQSFKESRFEEAISSYSKANSIKPLDPIVLGNRSAAYIRFGQYLKQRSASISEYKPLNGFDMSMLGELALKDADKLMSLQSSLVKSYITKACALMLLERYEVARDTILSGLQIDPFSGPLRSNLQELEKVMPNSMRKTHGMAERSDDFDCTVCLKLLYEPATTPCGHTFCRSCLFQSMDRGNKCPLCRTVIFMTPRTCAVSVTLNNIIEKNFPEEYAERKSEQDTLVHLGNESMPLFVMDVIIPCQKLSLHIFEPRYRLMVRRIMEGNHRMGMVALDSATGSPVDVACEVEITECDPLPDGRFVLELESHRRCRIVKAWDQDGYRVAEVEWVKDIPPQSEQGKADLRELTTSAASFARSWLDRAKEAARQGDRRRLEILLNVESMIPTPQDPERFSFWLATLTDRRPSERLELLRLQDTGEVLDYRLVQIARQISLFHQSLSFDC | not soluble |
| SLSHRTDGSLLFPLSLVHINDIHAHWEEIDTASVTCDPKRDGAAEQCLGGYARTVTIVRQLLQERPNPVYLNIGDNFQGTLWYNIHRWNATAFFLNLLPADAVTVGNHEFDDGIAGVVPFLEAIQSPVLLVNVDNSKEPSFSKFRPSMVLERAGRKIGLIGVILRTTYNMADTGALVFEDEAETVRLEADRLAAEGVDIVVVLSHCGLDVDHIIAANAGPNVDIIVGGHSHSFLYSGQNDKIPMTPASEYPTVVNQPDGHRVLIVQASAYTKLVGDIVLYFDDQGIVQHWEGNPIYLSNDIVPDAEVLEAIAPWKVAIDAVGERTIGATAVDLLKPPCNFGECVLGNLIADSMVEAFVPMAEEGSWTYASIAAIAVGRIRQSLVPGDISFKHLIEVLPFENKLVCLELRGFQLVGLLEHGAELSWDEHRFNAKNLMHVSGLRVVYNVTNPIGHRVLSVEALCQDCSMPSYAPVEMFKMYRVVTVSYLAEGGDGFEIFPRYGRNRVVAPMDDVQAFEEYVKPRSPVAPVLEERIQILN | not soluble |
| MSLSCLFLQSAGEMLQNCAQSNCRIIPKKLRDMKREEICRLLADKVNKLKNKENSLSELLPDVRLLYGETPFARTPVMYEPGIIILFSGHKIGYINERVFRYDANEYLLLTVPLPFECETYATSEVPLAGLRLNVDILQLQELLMDIGEDEHFQPSMAASGINSATLSEEILCAAERLLDVMERPLDARILGKQIIREILYYVLTGPCGGALLALVSRQTHFSLISRVLKRIENKYTENLSVEQLAAEANMSVSAFHHNFKSVTSTSPLQYLKNYRLHKARMMIIHDGMKASAAAMRVGYESASQFSREFKRYFGVTPGEDAARMRAMQGNEGHHHHHH | soluble |
| MSLDFAKQGPIVIGGVGGSGTRLIAEIVMDMGFYLGGMLNQSKDLLYFSLLFKRPTWFSKVVTSNEQEIFRGLKILENRLTTQKELTGKDIKFIEKAAQTYRNGDLLAQKIKKNMLFPDPINRQLYRGWGWKEPNAHLFLPYIHRYFPNGKYIHVIRNGLNMAFSKNQQQLFNWGPLFGVTIPNNPMKIPNASLTYWIKANERAVMYGTEQMKGRFLLIQFDQLCVNPTPQLQKLAEFLAVDDLAIDEWSEKIDPAAAASKYKEGHHHHHH | soluble |
| MAHHHHHHMGCSGSKNASNPKDGAASKGGKDGKTTADRKVAWERIRCAIPRDKDAESKSRRIELFKRFDTNGTGKLGFREVLDGCYSVLKLDEFTTHLPDIVQRAFDKAKDLGNKVKGVGEEDLVEFLEFRLMLCYIYDIFELTVMFDTMDKDGSLLIELQEFKEALPKLKEWGVDITDATTVFNEIDTNGSGVVTFDEFSCWAVTKKLQVCGDPDGEGNGANEGDGANAGDGVPAAEGSA | soluble |
| GPGSMWGPNQEVAHPRHDGKSFYLPSTSAAGAAALGASLLPHSNLVCAPLNPHIAREPVDTATGDGDGTVRALLTRFRIENERLRDQVKAHVVQEALLTQRLQELSARNTALHLQDFRKRDNDAVVEKLKKQLEVKEMEVRALQLQVGELNGRISAYEEAISRPDHPQGLSANSMDRVRELICEALSSAGFLTRVANAVEHCHPSTHEVTDCPRSVEECTNHCLQAAMRGNKELPGETAARGHHVSCEELASALREEVLFCETVAVRVAAKLFMERSSADSSAKADRGTGLQHQEESAPPLARPTAECPAEAHELPQSDRRPRRKPAARPTVEDCEVQ | not soluble |
| MSHIFDASVLAPHIPSNLPDNFKVRPLAKDDFSKGYVDLLSQLTSVGNLDQEAFEKRFEAMRTSVPNYHIVVIEDSNSQKVVASASLVVEMKFIHGAGSRGRVEDVVVDTEMRRQKLGAVLLKTLVSLGKSLGVYKISLECVPELLPFYSQFGFQDDCNFMTQRF | soluble |
| MKLLAITSCPNGIAHTYMAAENLQKAADRLGVSIKVETQGGIGVENKLTEEEIREADAIIIAADRSVNKDRFIGKKLLSVGVQDGIRKPEELIQKALNGDIPVY | not soluble |
| MSLAARRALHFVFKVGNRFQTARFYRDVLGMKVLRHEEFEEGCKAACNGPYDGKWSKTMVGFGPEDDHFVAELTYNYGVGDYKLGNDFMGITLASSQAVSNARKLEWPLTEVAEGVFETEAPGGYKFYLQNRSLPQSDPVLKVTLAVSDLQKSLNYWCNLLGMKIYEKDEEKQRALLGYADNQCKLELQGVKGGVDHAAAFGRIAFSCPQKELPDLEDLMKRENQKILTPLVSLDTPGKATVQVVILADPDGHEICFVGDEAFREGHHHHHH | soluble |
| MAHHHHHHMLAGLLRGIRAATAPQRSRRRFLPRMRQRSSFSAVSSAAMFKNTLTTQRAQKGDYGFNVFHNSNPQHGGSYARHERRMREDEVEDFLKSVKHWRPLHEDVADGDLVDDAQSSSSTSAPAAGPPMPRLARMGEEAIMRTFQFETFREAYLFMGRVWAFCYGSDKYPHVTWEGTALTVYLYSSSFRGLSKREARVAAFLNDQYNMLRKSKWQQRRIVDGIVRQSAVEELLGEEVAAHLAHRETLRTAPLQEVQDGPRSWRSAIGSPLRSPNSGSDGAGSSMGVRES | not soluble |
| MSGLPCNERMDCTQCPKAVENSIHYTHNKKGFHLPPHKCETNILFFLLKGQILINSEEYAGTIINSGEFVLQAIASKVEILAMTDSEGILYTFDDPKAFCYDRYTYILKNVPPPLISEPLKIKPEIKLFLEGVASYLNADKICKELLEFKRKELYYLLAHYYTDYELSPVVHSLSQYTSSFEYFILKHHKQIKSVEEFAQLGGYSVTTFRRIFKAIFNEPAYEWMMKQRKESILYQLRYTDASISEICFGHGFESLSHFSNFCKKSFGDSPRNIRKKEKEEISPNT | not soluble |
| MGSDKIHHHHHHMRVLLLSDIHSSTQNLEKILKAAEYDAVFIAGDLTQFRPKDAKVVDEIISEQTDSCLAVHGNCDHEAILGEKYKALKFIHGKSVEFDGYTVHGVGGSGITPFNTPSEYTEREILEIMDNFVLRDFNILLSHCPPKGFLDRTYSGVHAGCEAIRERMIEFDVILCGHIHESHGVVDSPQLIVNPGPVMWGRFAVIDVEKKVVELRKL | not soluble |
| MNSSPKMKHDVFISFRSKDTRDNFVSHLCGCLRRKRIKTFLYDELPADERYEESLKAIEVSKISVIVFSENFGDSRWCLDEVVAILKCKEKFGQIVIPVLYHVDPLDIENQTGSFGDAFAKRRDKAEQLQEWKDSFTEAINLPGWSTAYLRYNPKLILSIKVTVVSELQDVLISGINIMITAFSTCK | soluble |
| MIGLITTLYFVAKTAFIKLKVAVYKDKAKGSGNKNTIVIYSEGKRYWNVFLPICNEFEEHQKELVFYTSSEDDPVFEQHYTYVKPEYIGKGNKAFARLNMLEADICLMTTPGLDVYQLKRSKHVRHYSHILHALDDATSYRLFGLDYFDSVLLSGEYQVKGIRELESLRNLPPKNLRVVGCPYLDVLSEKIKNLPEKSSDFTVLIAPSWGASGILSKYGEQLITPLVETGWNIIIRPHPQSKTSEPDMLKRLEGKYKDVANFVWDYNSENIDSLSKADIMISDFSSVIFDYCFLFDKPFLYCNNEFDHRPYDSGDLKETPWKFSVLKEIGVELNSNSFDHIKEIISEACKSETLKENRLKAKDTAWQNRGCAGKAVYDFLTEIKTI | not soluble |
| MSADGAEADGSTQVTVEEPVQQPSVVDRVASMPLISSTCDMVSAAYASTKESYPHVKTVCDAAEKGVRTLTAAAVSGAQPILSKLEPQIASASEYAHRGLDKLEENLPILQQPTEKVLADTKELVSSKVSGAQEMVSSAKDTVATQLSEAVDATRGAVQSGVDKTKSVVTGGVQSVMGSRLGQMVLSGVDTVLGKSEEWADNHLPLTDAELARIATSLDGFDVASVQQQRQEQSYFVRLGSLSERLRQHAYEHSLGKLRATKQRAQEALLQLSQVLSLMETVKQGVDQKLVEGQEKLHQMWLSWNQKQLQGPEKEPPKPEQVESRALTMFRDIAQQLQATCTSLGSSIQGLPTNVKDQVQQARRQVEDLQATFSSIHSFQDLSSSILAQSRERVASAREALDHMVEYVAQNTPVTWLVGPFAPGITEKAPEEKK | soluble |
| MSLSQIVAEVDGYKVTKEELDTLFHVFWKRITHLSSAKPTQEDKRIFLIDYVADLLILKEAKKMGIEVSEKEINDFIRKYVGRKIKEKSVINAVKAEILVEKLVDKLMKEQELNPSEDILRAYYEFYKREFYRPSSVKLLGIYVKSKKEAERISQILKQGEVPSTEDVKVSKPLWYSIPTLPKYIRRNFRTLSVGEVSKPIKINDGYLVFKILDKKEGHHHHHH | soluble |
